Source: patent US20250122277A1 (Novartis, published 2025)

Experiments:
[1] = target: T1, rec marmoset IL-17 (marmoset, UniProt A0ACM8QD00 24-153); test: SPR (BIAcore 2000), 40 nM IL-17, run 1
T1 sequence: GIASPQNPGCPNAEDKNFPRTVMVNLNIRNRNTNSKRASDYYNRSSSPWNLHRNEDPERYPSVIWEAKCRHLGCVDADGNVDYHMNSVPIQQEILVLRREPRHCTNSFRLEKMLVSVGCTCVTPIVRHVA
Description: (§1) Determination of kinetic binding parameters and levels of crossreactivity are done by surface plasmon resonance measurements using the optical biosensor BIAcore® 2000 (BIAcore AB, Upsalla, Sweden, see Lit. HS 1,2 for details). This technology allows the label-free determination the microscopic rate constants for binding (kₒₙ) and dissociation (koff) of a ligand to a receptor. It is therefore especially suited for characterizing the antibody-antigen interactions. […] Covalent binding of Fcγ capture antibody is done with the ‘Amine coupling kit’ provided by BIAcore (BIAcore, Cat. No. BR-1000-50). […] As a guideline, 1000 RUs correspond to a mass transfer of 1 ng/mm². […] The results are compared to the protocol described in Table 9 (see below).
(§2) Two independent runs testing 6 IL-17 concentrations in each run are performed. Concentrations for human IL-17 are 2, 4, 8, 12, 16, 20 nM and 10, 20, 30, 40, 50, 60 nM for all other species. Complete data analysis yields n=12 individual measurements for each IL-17 species. The KD as well as SEM is reported.

[2] = target: T2, rec rhesus monkey IL-17 (rhesus monkey, UniProt F6T3G5 24-155); test: SPR (BIAcore 2000), 40 nM IL-17, run 1
T2 sequence: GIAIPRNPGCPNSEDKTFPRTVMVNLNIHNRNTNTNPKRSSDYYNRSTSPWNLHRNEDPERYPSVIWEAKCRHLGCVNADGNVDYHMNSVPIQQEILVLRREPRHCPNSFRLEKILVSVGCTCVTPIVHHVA
Description: as §1, §2

[3] = target: T1, rec marmoset IL-17; test: SPR (BIAcore 2000), 10 nM IL-17, run 2
Description: as §1, §2

[4] = target: T2, rec rhesus monkey IL-17; test: SPR (BIAcore 2000), 10 nM IL-17, run 2
Description: as §1, §2

[5] = target: T3, rec cynomolgous monkey IL-17 (cynomolgous monkey); test: SPR (BIAcore 2000), 10 nM IL-17, run 2
Description: as §1, §2

[6] = target: T1, rec marmoset IL-17; test: SPR (BIAcore 2000), 50 nM IL-17, run 2
Description: as §1, §2

[7] = target: T2, rec rhesus monkey IL-17; test: SPR (BIAcore 2000), 60 nM IL-17, run 2
Description: as §1, §2

[8] = target: T3, rec cynomolgous monkey IL-17; test: SPR (BIAcore 2000), mean (printed n = 10)
Description: as §1, §2

[9] = target: T2, rec rhesus monkey IL-17; test: SPR (BIAcore 2000), mean of run 1 + 2
Description: as §1, §2

[10] = target: T3, rec cynomolgous monkey IL-17; test: SPR (BIAcore 2000), mean of run 1 + 2
Description: as §1, §2

[11] = target: T1, rec marmoset IL-17; test: SPR (BIAcore 2000), 40 nM IL-17, run 2
Description: as §1, §2

[12] = target: T2, rec rhesus monkey IL-17; test: SPR (BIAcore 2000), 40 nM IL-17, run 2
Description: as §1, §2

[13] = target: T1, rec marmoset IL-17; test: SPR (BIAcore 2000), 20 nM IL-17, run 1
Description: as §1, §2

[14] = target: T2, rec rhesus monkey IL-17; test: SPR (BIAcore 2000), 20 nM IL-17, run 1
Description: as §1, §2

[15] = target: T3, rec cynomolgous monkey IL-17; test: SPR (BIAcore 2000), 20 nM IL-17, run 1
Description: as §1, §2

[16] = target: T1, rec marmoset IL-17; test: SPR (BIAcore 2000), mean n = 10
Description: as §1, §2

[17] = target: T3, rec cynomolgous monkey IL-17; test: SPR (BIAcore 2000), 25 nM IL-17, run 2
Description: as §1
(§3) Two independent runs testing 6 IL-17 concentrations in each run are performed. […] Complete data analysis yields n=12 individual measurements for each IL-17 species. The KD as well as SEM is reported.

[18] = target: T1, rec marmoset IL-17; test: SPR (BIAcore 2000), 50 nM IL-17, run 1
Description: as §1, §2

[19] = target: T2, rec rhesus monkey IL-17; test: SPR (BIAcore 2000), 50 nM IL-17, run 1
Description: as §1, §2

[20] = target: T2, rec rhesus monkey IL-17; test: SPR (BIAcore 2000), mean n = 12
Description: as §1, §2

[21] = target: T3, rec cynomolgous monkey IL-17; test: SPR (BIAcore 2000), 5 nM IL-17, run 2
Description: as §1, §3

[22] = target: T1, rec marmoset IL-17; test: SPR (BIAcore 2000), 30 nM IL-17, run 2
Description: as §1, §2

[23] = target: T2, rec rhesus monkey IL-17; test: SPR (BIAcore 2000), 30 nM IL-17, run 2
Description: as §1, §2

[24] = target: T3, rec cynomolgous monkey IL-17; test: SPR (BIAcore 2000), 30 nM IL-17, run 2
Description: as §1, §2

[25] = target: T3, rec cynomolgous monkey IL-17; test: SPR (BIAcore 2000), 15 nM IL-17, run 2
Description: as §1, §3

[26] = target: T1, rec marmoset IL-17; test: SPR (BIAcore 2000), 30 nM IL-17, run 1
Description: as §1, §2

[27] = target: T2, rec rhesus monkey IL-17; test: SPR (BIAcore 2000), 30 nM IL-17, run 1
Description: as §1, §2

[28] = target: T3, rec cynomolgous monkey IL-17; test: SPR (BIAcore 2000), 30 nM IL-17, run 1
Description: as §1, §2

[29] = target: T3, rec cynomolgous monkey IL-17; test: SPR (BIAcore 2000), 5 nM IL-17, run 1
Description: as §1, §3

[30] = target: T2, rec rhesus monkey IL-17; test: SPR (BIAcore 2000), 60 nM IL-17, run 1
Description: as §1, §2

[31] = target: T1, rec marmoset IL-17; test: SPR (BIAcore 2000), 10 nM IL-17, run 1
Description: as §1, §2

[32] = target: T2, rec rhesus monkey IL-17; test: SPR (BIAcore 2000), 10 nM IL-17, run 1
Description: as §1, §2

[33] = target: T3, rec cynomolgous monkey IL-17; test: SPR (BIAcore 2000), 10 nM IL-17, run 1
Description: as §1, §2

[34] = target: T1, rec marmoset IL-17; test: SPR (BIAcore 2000), 20 nM IL-17, run 2
Description: as §1, §2

[35] = target: T2, rec rhesus monkey IL-17; test: SPR (BIAcore 2000), 20 nM IL-17, run 2
Description: as §1, §2

[36] = target: T3, rec cynomolgous monkey IL-17; test: SPR (BIAcore 2000), 20 nM IL-17, run 2
Description: as §1, §2

[37] = target: T3, rec cynomolgous monkey IL-17; test: SPR (BIAcore 2000), 25 nM IL-17, run 1
Description: as §1, §3

B1: recombinant human AIN457 (batch KB03303A) (antibody, V domains shown)
VH: EVQLVESGGGLVQPGGSLRLSCAASGFTFSNYWMNWVRQAPGKGLEWVAAINQDGSEKYYVGSVKGRFTISRDNAKNSLYLQMNSLRVEDTAVYYCVRDYYDILTDYYIHYWYFDLWGRGTLVTVSS
VL: not shown
notes: same variable domains as m1; also called AIN457 (KB03303A); NVP-AIN457 (KB03303A)
Kd [1]: 1.17 nM
Kd [2]: 12.4 nM
Kd [3]: 1.13 nM
Kd [4]: 7.04 nM
Kd [5]: 6.9 nM
Kd [6]: 1.67 nM
Kd [7]: 12.3 nM
Kd [8]: 6 nM
Kd [9]: 9 nM
Kd [10]: 6 nM
Kd [11]: 1.36 nM
Kd [12]: 9.74 nM
Kd [13]: 0.782 nM
Kd [14]: 7.34 nM
Kd [15]: 4.75 nM
Kd [16]: 1.21 nM
Kd [17]: 7.34 nM
Kd [18]: 1.21 nM
Kd [19]: 11.2 nM
Kd [20]: 8.96 nM
Kd [21]: 7.08 nM
Kd [22]: 1.57 nM
Kd [23]: 8.16 nM
Kd [24]: 8.32 nM
Kd [25]: 7.41 nM
Kd [26]: 1.17 nM
Kd [27]: 6.04 nM
Kd [28]: 7.89 nM
Kd [29]: 1.1 nM
Kd [30]: 13.1 nM
Kd [31]: 0.895 nM
Kd [32]: 2.28 nM
Kd [33]: 2.24 nM
Kd [34]: 1.17 nM
Kd [35]: 5.93 nM
Kd [36]: 7.17 nM
Kd [37]: 6.26 nM
